{"source": "patent US20230183336A1", "about": "(MODMAB THERAPEUTICS, published 2023)", "biological_target": "T1, recombinant mouse LRP5-His chimera (mouse, UniProt Q91VN0 31-1383)", "T1 construct": "extracellular domain; also called ECD of mouse LRP5; not shown: His tag", "T1 sequence (looked up)": "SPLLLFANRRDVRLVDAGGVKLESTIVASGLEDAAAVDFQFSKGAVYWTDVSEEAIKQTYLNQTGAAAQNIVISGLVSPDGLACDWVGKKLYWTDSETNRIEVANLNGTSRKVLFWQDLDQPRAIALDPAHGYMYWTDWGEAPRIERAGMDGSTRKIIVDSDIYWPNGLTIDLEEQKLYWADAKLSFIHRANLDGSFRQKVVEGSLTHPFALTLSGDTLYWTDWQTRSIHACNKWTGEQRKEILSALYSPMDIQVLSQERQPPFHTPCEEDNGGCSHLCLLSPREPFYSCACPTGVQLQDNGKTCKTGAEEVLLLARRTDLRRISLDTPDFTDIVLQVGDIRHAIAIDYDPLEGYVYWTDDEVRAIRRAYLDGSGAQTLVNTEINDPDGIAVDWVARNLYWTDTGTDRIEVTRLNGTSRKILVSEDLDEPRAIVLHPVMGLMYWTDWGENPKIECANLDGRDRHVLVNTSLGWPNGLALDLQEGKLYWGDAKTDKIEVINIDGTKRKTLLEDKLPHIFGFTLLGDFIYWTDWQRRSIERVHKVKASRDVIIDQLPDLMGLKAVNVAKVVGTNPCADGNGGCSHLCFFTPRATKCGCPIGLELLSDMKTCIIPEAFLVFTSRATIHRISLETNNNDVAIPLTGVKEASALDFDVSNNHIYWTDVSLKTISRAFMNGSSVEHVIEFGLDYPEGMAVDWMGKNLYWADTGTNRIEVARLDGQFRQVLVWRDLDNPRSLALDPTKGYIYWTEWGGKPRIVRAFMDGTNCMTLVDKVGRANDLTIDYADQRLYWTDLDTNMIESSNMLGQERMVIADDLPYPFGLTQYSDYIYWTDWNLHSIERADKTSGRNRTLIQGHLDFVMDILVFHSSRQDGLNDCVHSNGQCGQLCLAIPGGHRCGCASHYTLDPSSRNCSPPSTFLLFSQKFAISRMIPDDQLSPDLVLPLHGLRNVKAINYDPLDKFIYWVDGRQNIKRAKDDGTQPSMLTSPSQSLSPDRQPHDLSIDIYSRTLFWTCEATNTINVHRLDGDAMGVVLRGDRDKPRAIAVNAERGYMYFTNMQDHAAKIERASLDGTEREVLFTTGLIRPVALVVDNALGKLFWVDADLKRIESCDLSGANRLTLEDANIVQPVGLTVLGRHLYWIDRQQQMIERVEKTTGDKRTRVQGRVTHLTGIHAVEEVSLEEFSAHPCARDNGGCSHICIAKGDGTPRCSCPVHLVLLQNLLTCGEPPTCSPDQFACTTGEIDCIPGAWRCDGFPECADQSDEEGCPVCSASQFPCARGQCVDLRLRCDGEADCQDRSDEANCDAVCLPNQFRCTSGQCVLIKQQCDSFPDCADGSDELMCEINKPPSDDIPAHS", "assay": "single-point ELISA, coated antigen, purified Fab or IgG1, anti-kappa-HRP"}
{"binder": "LRP5-H5 (antibody, V domains shown, Fab-phage in the screen) VH: EVQLVESGGGLVQPGGSLRLSCAASGFNLSYSSIHWVRQAPGKGLEWVASISSSYGSTSYADSVKGRFTISADTSKNTAYLQMNSLRAEDTAVYYCARGYWAIDYWGQGTLVTVSS VL: DIQMTQSPSSLSASVGDRVTITCRASQSVSSAVAWYQQKPGKAPKLLIYSASSLYSGVPSRFSGSRSGTDFTLTISSLQPEDFATYYCQQPVGHYGYPITFGQGTKVEIKR", "values": [{"measurement": "binding result", "value": "binds"}]}
